The record followed here is patent US20210032305A1 (KINDRED BIOSCIENCES, published 2021).

Positions count from the first letter of the chain named.

What is called Kd is the constant that tells how readily two partners part at equilibrium. High values mean a looser complex, low ones a tighter complex. The EC50 is the concentration giving half of the maximal effect. Low values mean an effect from little substance, high ones a need for much substance.

Assay [1] has as its target T1, Feline EPOR202_ECD_human Fc (feline EPOR fused to human Fc, biotinylated with EZ-Link NHS-LC-biotin).
T1 construct: also called fEPOR202_ECD-Fc; feline EPOR202-ECD-Fc
Nature of the assay: biolayer interferometry (ForteBio); biotinylated receptor-Fc on streptavidin tips, EPO analog 150-1.9 nM, 1:1 fit. The protocol:
(§1) The binding analysis was performed as follows. Briefly, fEPOR201_ECD-Fc and fEPOR202_ECD-Fc were biotinylated using EZ-Link NHS-LC-biotin (Catalog No. 21336, Thermo Scientific). The free unreacted biotin was removed by dialysis. Biotinylated fEPOR201_ECD-Fc and fEPOR202_ECD-Fc were captured on streptavidin sensor tips (Catalog No. 18-509, ForteBio).
(§2) Dissociation was monitored for 600 seconds. A buffer only blank curve was subtracted to correct for any drift. The data were fit to a 1:1 binding model using ForteBio™ data analysis software to determine the kₒₙ (association rate constant), koff (dissociation rate constant) and the Kd (dissociation constant). […] The buffer for dilutions and all binding steps was: 200 mM phosphate, 150 mM NaCl, 0.02% Tween-20, 0.05% sodium azide, and 0.1 mg BSA, pH7.4.

Assay [2] deals with T2, Feline EPOR201_ECD_human Fc (feline EPOR fused to human Fc, biotinylated with EZ-Link NHS-LC-biotin).
T2 construct: also called fEPOR201_ECD-Fc; feline EPOR201-ECD-Fc
T2 sequence (chain, as listed by the source limits assumed): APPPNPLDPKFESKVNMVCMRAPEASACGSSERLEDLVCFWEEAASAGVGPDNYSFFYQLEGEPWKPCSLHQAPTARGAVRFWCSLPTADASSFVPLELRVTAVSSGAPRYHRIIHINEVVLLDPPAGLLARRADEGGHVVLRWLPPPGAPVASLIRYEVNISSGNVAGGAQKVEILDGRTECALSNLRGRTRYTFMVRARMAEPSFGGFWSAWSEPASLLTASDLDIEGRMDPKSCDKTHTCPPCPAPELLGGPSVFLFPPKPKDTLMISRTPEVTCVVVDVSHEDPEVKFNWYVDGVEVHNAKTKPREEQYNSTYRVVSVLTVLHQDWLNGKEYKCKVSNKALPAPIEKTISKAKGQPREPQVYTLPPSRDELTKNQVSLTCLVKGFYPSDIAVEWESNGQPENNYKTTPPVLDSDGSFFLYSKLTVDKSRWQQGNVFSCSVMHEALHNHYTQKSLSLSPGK
The description is as above. The protocol: as §1, §2

Assay [3] concerns the target T3, human EPOR-Fc (Catalog No. 963-ER-050, R&D Systems) (human, UniProt P19235 25-250, biotinylated in Example 10 only).
T3 construct: extracellular domain; treated as one molecule; also called extracellular domain of human EPOR; human EPO receptor; not shown: Fc part of the bought EPOR-Fc
T3 sequence (looked up): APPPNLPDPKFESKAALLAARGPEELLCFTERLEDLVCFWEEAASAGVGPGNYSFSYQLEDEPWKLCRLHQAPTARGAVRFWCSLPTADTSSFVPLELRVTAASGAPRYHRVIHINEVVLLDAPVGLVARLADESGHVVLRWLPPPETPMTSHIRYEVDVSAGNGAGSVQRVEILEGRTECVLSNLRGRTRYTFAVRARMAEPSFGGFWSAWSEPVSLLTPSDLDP
Nature of the assay: biolayer interferometry (ForteBio); biotinylated human EPOR on streptavidin tips, EPO analog 20-0.25 nM, 1:1 fit. The source says:
Dissociation was monitored for 600 seconds. A buffer only blank curve was subtracted to correct for any drift.
(In general: BLI is a label-free optical method that tracks binding on a fibre tip over time.)

The target in the next assay is T4, human EPOR on TF-1 cells (human, UniProt P19235 25-508).
T4 sequence (looked up): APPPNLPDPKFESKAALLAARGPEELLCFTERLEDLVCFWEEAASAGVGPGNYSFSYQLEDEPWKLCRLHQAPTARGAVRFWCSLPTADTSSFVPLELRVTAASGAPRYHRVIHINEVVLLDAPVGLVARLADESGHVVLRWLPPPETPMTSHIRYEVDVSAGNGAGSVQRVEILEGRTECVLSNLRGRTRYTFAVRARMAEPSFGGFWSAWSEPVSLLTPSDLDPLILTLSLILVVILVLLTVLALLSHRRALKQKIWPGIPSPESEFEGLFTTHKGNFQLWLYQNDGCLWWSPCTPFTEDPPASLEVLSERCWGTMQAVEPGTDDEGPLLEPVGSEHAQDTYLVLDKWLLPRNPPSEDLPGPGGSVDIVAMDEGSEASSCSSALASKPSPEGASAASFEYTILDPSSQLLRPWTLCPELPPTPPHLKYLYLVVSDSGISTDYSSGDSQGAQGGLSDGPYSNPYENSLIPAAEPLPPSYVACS
Nature of the assay: cell-based or functional assay.

The target in assay [4] is T5, Feline EPOR203_39A_ECD_Fc (feline EPOR fused to human Fc).
T5 construct: also called feline EPOR203-ECD-Fc; fEPOR203_ECD-Fc
T5 sequence (chain, as listed by the source limits assumed): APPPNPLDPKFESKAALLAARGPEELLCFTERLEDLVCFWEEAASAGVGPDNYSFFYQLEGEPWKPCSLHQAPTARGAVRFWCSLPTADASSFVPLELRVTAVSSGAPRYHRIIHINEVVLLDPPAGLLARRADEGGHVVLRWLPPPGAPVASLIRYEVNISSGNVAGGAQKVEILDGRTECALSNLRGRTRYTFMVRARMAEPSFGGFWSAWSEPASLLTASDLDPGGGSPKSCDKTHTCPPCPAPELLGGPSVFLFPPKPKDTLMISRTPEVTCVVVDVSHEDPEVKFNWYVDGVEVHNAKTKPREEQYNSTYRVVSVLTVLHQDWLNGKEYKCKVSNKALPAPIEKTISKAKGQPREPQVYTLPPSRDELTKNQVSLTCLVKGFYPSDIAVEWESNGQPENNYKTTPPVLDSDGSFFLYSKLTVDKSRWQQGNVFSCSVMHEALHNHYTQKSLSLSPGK
Nature of the assay: sandwich ELISA: plate coated with anti-human EPO antibody, Analog 6-30 EV Mature captured in 2-fold dilutions from 500 ng/mL, feline EPOR203_39A_ECD_Fc added at 200 ng/mL, detected with anti-human Fc HRP; 4-parameter fit. The axis 'Conc' prints no unit; ng/mL is from paragraph 333. The protocol:
Feline EPOR203_39A_ECD_Fc (200 ng/mL in 1% BSA-PBST buffer) was added to each well and binding allowed to proceed for 1 hour at room temperature. A rabbit anti-human Fc antibody and horseradish peroxidase (HRP) conjugate (0.2 μg/mL) was used for detection and left in the wells for 1 hour at room temperature. 3,3,5,5′-Tetramethylbenzidine (TMB) was applied to the wells as the HRP substrate and kept in the well for 5 to 7 minutes for signal development.
Background: In an ELISA, binding on a coated surface is turned into a signal by an enzyme label.

Assay [5] concerns the target T3, human EPOR-Fc (Catalog No. 963-ER-050, …). Nature of the assay: ELISA 1: EPO analog captured by mouse anti-EPO antibody (MAB287), human EPOR-Fc at 200 ng/mL, anti-human Fc HRP. The protocol: (§3) A 96-well plate was coated with a mouse anti-EPO specific antibody (Catalog No. MAB287, clone 9C21D11, R&D Systems) to capture the EPO polypeptides. The EPO-bound wells were incubated with human EPOR-Fc at a concentration of 200 ng/mL and the bound EPOR was detected by anti-human Fc HRP conjugated antibody. The ELISA was performed a second time, but the three samples of EPO polypeptides were first treated with neuraminidase to remove the sialic acid.

Assay [6] has the same target. Nature of the assay: ELISA 2: as ELISA 1, EPO sample treated with neuraminidase first. The protocol:
as §3

T1 sequence (chain, as listed by the source limits assumed): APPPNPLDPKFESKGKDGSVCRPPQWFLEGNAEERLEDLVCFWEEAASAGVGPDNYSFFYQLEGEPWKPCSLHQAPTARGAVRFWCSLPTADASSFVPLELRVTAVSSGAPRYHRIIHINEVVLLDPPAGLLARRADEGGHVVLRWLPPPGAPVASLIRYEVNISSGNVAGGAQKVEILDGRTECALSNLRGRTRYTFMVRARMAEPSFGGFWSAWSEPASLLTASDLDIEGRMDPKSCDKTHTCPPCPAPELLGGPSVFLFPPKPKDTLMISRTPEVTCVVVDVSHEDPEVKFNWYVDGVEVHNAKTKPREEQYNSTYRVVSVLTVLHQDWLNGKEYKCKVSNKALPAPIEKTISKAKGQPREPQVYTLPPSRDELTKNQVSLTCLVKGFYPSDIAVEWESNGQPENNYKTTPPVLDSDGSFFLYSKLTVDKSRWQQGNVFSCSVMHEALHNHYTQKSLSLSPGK

B1: Feline EPO Analog 6-30 G18V87 mature form (Analog 6-30 GV Mature) (ligand)
chain: APPRLICDSRVLERYILGAREAENVTMGCNETCSFSENITVPDTKVNFYTWKRMDVGQQAVEVWQGLALLSEAILRGQALLANSSQVNETLQLHVDKAVSSLRSLTSLLRALGAQKEATSLPEATSAAPLRTFTVDTLCKLFRIYSNFLRGKLTLYTGEACRRGDR
modifications: N-linked glycosylated and sialylated (CHO DG-44 expressed); fraction not specified in this assay
notes: also called feline EPO Analog 6-30 GV Mature
For the molecule B1, the Kd was determined as 170 pM in assay [1], 400 pM in assay [2] and 97.6 pM in assay [3]. For the same molecule, the “EC50, TF-1 cell proliferation (MTT)” value with human EPOR on TF-1 cells is 0.3 IU/mL.

B2: Feline EPO Analog 6-30 E18V87 mature form (Analog 6-30 EV Mature) (ligand)
chain: B1 chain with G18E
modifications: N-linked glycosylated and sialylated (CHO DG-44 expressed); fraction not specified in this assay
notes: also called Feline Analog 6-30 EV Mature; Sample 1
As for B2, the “EC50, TF-1 cell proliferation (MTT)” value with human EPOR on TF-1 cells amounted to 0.00478 µg/mL. The molecule also registered an EC50 in assay [4] of 0.088 µg/mL.

B3: Analog 6-30 GV Mature (basic fraction) (ligand)
chain: B1 chain
modifications: N-linked glycosylated; low sialylation, isoelectric point range of about 4 to about 5 (Example 15), about 3.5 to about 5 (Example 6)
notes: Same polypeptide as m1; glycoform fraction; In ELISA 2 it was treated with neuraminidase first; also called basic (low sialylation) fraction of Analog 6-30 GV Mature
With B3, the EC50 is 0.035 µg/mL in assay [5] and 0.031 µg/mL in assay [6].

B4: Analog 6-30 GV Mature (acidic fraction) (ligand)
chain: B1 chain
modifications: N-linked glycosylated; high sialylation, isoelectric point range of about 2 to about 3.5
notes: Same polypeptide as m1; glycoform fraction; In ELISA 2 it was treated with neuraminidase first; also called acidic (high sialylation) fraction of Analog 6-30 GV Mature
For B4, the figures for the EC50 in assay [5] and in assay [6] were 0.1 µg/mL and 0.018 µg/mL, respectively.

B5: Analog 6-30 EV Mature (acidic fraction) (ligand)
chain: B1 chain with G18E
modifications: N-linked glycosylated; high sialylation (acidic fraction)
notes: Same polypeptide as m4; glycoform fraction; In ELISA 2 it was treated with neuraminidase first; also called acidic (high sialylation) fraction of Analog 6-30 EV Mature
Regarding B5, the EC50 was 0.045 µg/mL in assay [5] and 0.02 µg/mL in assay [6].
